Assay results: patent publication US20210388087A1 (Chugai, published 2021)
Positions count from the first letter of the chain named.

B1: CE115HA000 D101T (antibody, human IgG1, kappa, L234A L235A, N297A, name in Kabat numbering)
heavy: QVQLVESGGGVVQPGRSLRLSCAASGFTFSNAWMHWVRQAPGKGLEWVAQIKAKSNNYATYYAESVKGRFTISRDDSKNSLYLQMNSLKTEDTAVYYCRYVHYGAYYGVTAWGQGTTVTVSSASTKGPSVFPLAPSSKSTSGGTAALGCLVKDYFPEPVTVSWNSGALTSGVHTFPAVLQSSGLYSLSSVVTVPSSSLGTQTYICNVNHKPSNTKVDKKVEPKSCDKTHTCPPCPAPEAAGGPSVFLFPPKPKDTLMISRTPEVTCVVVDVSHEDPEVKFNWYVDGVEVHNAKTKPREEQYASTYRVVSVLTVLHQDWLNGKEYKCKVSNKALPAPIEKTISKAKGQPREPQVYTLPPSRCELTKNQVSLSCAVKGFYPSDIAVEWESNGQPENNYKTTPPVLDSDGSFFLVSKLTVDKSRWQQGNVFSCSVMHEALHNHYTQKSLSLSPDYKDDDDK
chain: EPKSSDKTHTCPPCPAPELLGGPSVFLFPPKPKDTLMISRTPEVTCVVVDVSHEDPEVKFNWYVDGVEVHNAKTKPREEQYNSTYRVVSVLTVLHQDWLNGKEYKCKVSNKALPAPIEKTISKAKGQPREPQVCTLPPSRDELTKNQVSLWCLVKGFYPSDIAVEWESNGQPENNYKTTPPVLDSDGSFFLYSKLTVDKSRWQQGNVFSCSVMHEALHNRYTQKSLSLSP
light: DIVMTQSPLSLPVTPGEPASISCRSSQSLVHSNRNTYLHWYQQKPGQAPRLLIYKVSNRFSGVPDRFSGSGSGTDFTLKISRVEAEDVGVYYCGQGTQVPYTFGQGTKLEIKRTVAAPSVFIFPPSDEQLKSGTASVVCLLNNFYPREAKVQWKVDNALQSGNSQESVTEQDSKDSTYSLSSTLTLSKADYEKHKVYACEVTHQGLSSPVTKSFNRGEC
notes: one-arm antibody
B2: CE115HA000 D101V (antibody, human IgG1, kappa, L234A L235A, N297A, name in Kabat numbering)
heavy: B1 heavy with T110V
chain: B1 chain
light: B1 light
notes: one-arm antibody
B3: CE115HA000 D101Y (antibody, human IgG1, kappa, L234A L235A, N297A, name in Kabat numbering)
heavy: B1 heavy with T110Y
chain: B1 chain
light: B1 light
notes: one-arm antibody
B4: CE115HA000 E61A (antibody, human IgG1, kappa, L234A L235A, N297A, name in Kabat numbering)
heavy: B1 heavy with E64A, T110D
chain: B1 chain
light: B1 light
notes: one-arm antibody
B5: CE115HA000 E61D (antibody, human IgG1, kappa, L234A L235A, N297A, name in Kabat numbering)
heavy: B1 heavy with E64D, T110D
chain: B1 chain
light: B1 light
notes: one-arm antibody
B6: CE115HA000 E61P (antibody, human IgG1, kappa, L234A L235A, N297A, name in Kabat numbering)
heavy: B1 heavy with E64P, T110D
chain: B1 chain
light: B1 light
notes: one-arm antibody
B7: CE115HA000 E61Q (antibody, human IgG1, kappa, L234A L235A, N297A, name in Kabat numbering)
heavy: B1 heavy with E64Q, T110D
chain: B1 chain
light: B1 light
notes: one-arm antibody
B8: CE115HA000 F29V (antibody, human IgG1, kappa, L234A L235A, N297A, name in Kabat numbering)
heavy: B1 heavy with F29V, T110D
chain: B1 chain
light: B1 light
notes: one-arm antibody
B9: CE115HA000 G65D (antibody, human IgG1, kappa, L234A L235A, N297A, name in Kabat numbering)
heavy: B1 heavy with G68D, T110D
chain: B1 chain
light: B1 light
notes: one-arm antibody
B10: CE115HA000 G65E (antibody, human IgG1, kappa, L234A L235A, N297A, name in Kabat numbering)
heavy: B1 heavy with G68E, T110D
chain: B1 chain
light: B1 light
notes: one-arm antibody
B11: CE115HA000 G98A (antibody, human IgG1, kappa, L234A L235A, N297A, name in Kabat numbering)
heavy: B1 heavy with G104A, T110D
chain: B1 chain
light: B1 light
notes: one-arm antibody
B12: CE115HA000 G98D (antibody, human IgG1, kappa, L234A L235A, N297A, name in Kabat numbering)
heavy: B1 heavy with G104D, T110D
chain: B1 chain
light: B1 light
notes: one-arm antibody
B13: CE115HA000 G98H (antibody, human IgG1, kappa, L234A L235A, N297A, name in Kabat numbering)
heavy: B1 heavy with G104H, T110D
chain: B1 chain
light: B1 light
notes: one-arm antibody
B14: CE115HA000 G98K (antibody, human IgG1, kappa, L234A L235A, N297A, name in Kabat numbering)
heavy: B1 heavy with G104K, T110D
chain: B1 chain
light: B1 light
notes: one-arm antibody
B15: CE115HA000 G98P (antibody, human IgG1, kappa, L234A L235A, N297A, name in Kabat numbering)
heavy: B1 heavy with G104P, T110D
chain: B1 chain
light: B1 light
notes: one-arm antibody
B16: CE115HA000 G98Q (antibody, human IgG1, kappa, L234A L235A, N297A, name in Kabat numbering)
heavy: B1 heavy with G104Q, T110D
chain: B1 chain
light: B1 light
notes: one-arm antibody
B17: CE115HA000 G98R (antibody, human IgG1, kappa, L234A L235A, N297A, name in Kabat numbering)
heavy: B1 heavy with G104R, T110D
chain: B1 chain
light: B1 light
notes: one-arm antibody
B18: CE115HA000 G98S (antibody, human IgG1, kappa, L234A L235A, N297A, name in Kabat numbering)
heavy: B1 heavy with G104S, T110D
chain: B1 chain
light: B1 light
notes: one-arm antibody
B19: CE115HA000 G98T (antibody, human IgG1, kappa, L234A L235A, N297A, name in Kabat numbering)
heavy: B1 heavy with G104T, T110D
chain: B1 chain
light: B1 light
notes: one-arm antibody
B20: CE115HA000 G98Y (antibody, human IgG1, kappa, L234A L235A, N297A, name in Kabat numbering)
heavy: B1 heavy with G104Y, T110D
chain: B1 chain
light: B1 light
notes: one-arm antibody
B21: CE115HA000 G100bD (antibody, human IgG1, kappa, L234A L235A, N297A, name in Kabat numbering)
heavy: B1 heavy with G108D, T110D
chain: B1 chain
light: B1 light
notes: one-arm antibody
B22: CE115HA000 G100bE (antibody, human IgG1, kappa, L234A L235A, N297A, name in Kabat numbering)
heavy: B1 heavy with G108E, T110D
chain: B1 chain
light: B1 light
notes: one-arm antibody
B23: CE115HA000 G100bF (antibody, human IgG1, kappa, L234A L235A, N297A, name in Kabat numbering)
heavy: B1 heavy with G108F, T110D
chain: B1 chain
light: B1 light
notes: one-arm antibody
B24: CE115HA000 G100bL (antibody, human IgG1, kappa, L234A L235A, N297A, name in Kabat numbering)
heavy: B1 heavy with G108L, T110D
chain: B1 chain
light: B1 light
notes: one-arm antibody
B25: CE115HA000 G100bS (antibody, human IgG1, kappa, L234A L235A, N297A, name in Kabat numbering)
heavy: B1 heavy with G108S, T110D
chain: B1 chain
light: B1 light
notes: one-arm antibody
B26: CE115HA000 G100bY (antibody, human IgG1, kappa, L234A L235A, N297A, name in Kabat numbering)
heavy: B1 heavy with G108Y, T110D
chain: B1 chain
light: B1 light
notes: one-arm antibody
B27: CE115HA000 H35D (antibody, human IgG1, kappa, L234A L235A, N297A, name in Kabat numbering)
heavy: B1 heavy with H35D, T110D
chain: B1 chain
light: B1 light
notes: one-arm antibody
B28: CE115HA000 H35E (antibody, human IgG1, kappa, L234A L235A, N297A, name in Kabat numbering)
heavy: B1 heavy with H35E, T110D
chain: B1 chain
light: B1 light
notes: one-arm antibody
B29: CE115HA000 H35F (antibody, human IgG1, kappa, L234A L235A, N297A, name in Kabat numbering)
heavy: B1 heavy with H35F, T110D
chain: B1 chain
light: B1 light
notes: one-arm antibody
B30: CE115HA000 H35G (antibody, human IgG1, kappa, L234A L235A, N297A, name in Kabat numbering)
heavy: B1 heavy with H35G, T110D
chain: B1 chain
light: B1 light
notes: one-arm antibody
B31: CE115HA000 H35I (antibody, human IgG1, kappa, L234A L235A, N297A, name in Kabat numbering)
heavy: B1 heavy with H35I, T110D
chain: B1 chain
light: B1 light
notes: one-arm antibody
B32: CE115HA000 H35K (antibody, human IgG1, kappa, L234A L235A, N297A, name in Kabat numbering)
heavy: B1 heavy with H35K, T110D
chain: B1 chain
light: B1 light
notes: one-arm antibody
B33: CE115HA000 H35L (antibody, human IgG1, kappa, L234A L235A, N297A, name in Kabat numbering)
heavy: B1 heavy with H35L, T110D
chain: B1 chain
light: B1 light
notes: one-arm antibody

These binders were tested against T1, CD3 epsilon homodimer protein (UniProt P07766 23-126) (assay: SPR, CD3 epsilon homodimer on chip, one-arm antibody as analyte;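 also: surface plasmon resonance at 25 °C with CD3 epsilon homodimer amine-coupled to a CM4 sensor chip, antibody injected as analyte, HBS-EP+ as running buffer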).
T1 construct: also called CD3 (CD3 epsilon)
T1 sequence (P07766 23-126): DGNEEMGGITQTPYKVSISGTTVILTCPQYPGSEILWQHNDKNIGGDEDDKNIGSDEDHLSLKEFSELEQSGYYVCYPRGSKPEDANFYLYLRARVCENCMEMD

Binder | KD ratio (KD of CE115HA000/KD of altered form)
B1 | 0.62
B2 | 1.18
B3 | 0.97
B4 | 0.94
B5 | 0.9
B6 | 0.82
B7 | 0.65
B8 | 2.94
B9 | 0.61
B10 | 0.61
B11 | 0.98
B12 | 2.36
B13 | 1.14
B14 | 4.85
B15 | 0.88
B16 | 1.04
B17 | 4.69

Binder | KD ratio (KD of CE115HA000/KD of altered form)
B18 | 0.98
B19 | 0.93
B20 | 2.75
B21 | 6.25
B22 | 7.29
B23 | 4.37
B24 | 5.84
B25 | 1.25
B26 | 51.4
B27 | 69
B28 | 70.3
B29 | 53.6
B30 | 45.8
B31 | 7.23
B32 | 14.4
B33 | 4.8
